The results in this text go back to patent US20220267415A1.

This experiment has as its target recombinant SARS-CoV-2 Receptor Binding Domain (RBD) with a his tag (ATUM, Cat. 65639.1.a) (SARS-CoV-2), P0DTC2. The experiment can be described thus: ELISA on coated RBD-his. As to conditions: remark: other sources report otherwise. In general terms: ELISA stands for enzyme-linked immunosorbent assay.

B1: anti-SARS-CoV2-09 IgG (antibody, V domains shown)
VH: QVQLHQWGAGLLKPSETLSRTCAVYGGSFSGYYWTWIRQAPGKGLEWIGEINHGGSTRYNPSLESRVSISVDTSKKQFSLELRSVTAADTAIYYCARGYDTNWYGDGYNWFDPWDRGTLVTVSS
VL: QSALTQDPSVSVALGQTVRITCQGDSLRGSFASWYRQKPGQAPVLVIFGINNRPSGVPDRFSGSSSGNTASLTITGAQAEDEADYYCNSRESNSNRILFGGGTKVTVL
Take B1: the EC50 is 2.3 nM.

B2: anti-SARS-CoV2-16 IgG (antibody, V domains shown)
VH: QVQLHQWGAGLLKPSETLSRTCAVYGGSFSGYYWTWIRQAPGKGLEWIGEINHGGSTRYNPSLESRVSISVDTSKKQFSLELRSVTAADTAIYYCARGYDTNWYGDGYNWFDPWDRGTLVTVSS
VL: QAVVTQPPSVSGTPGQRVTISCSGSSSSIGSNTVHWYQHLPGTAPKLLMYNNNERPSGVPARFSGSKSGTSASLVITGLQADDEAEYYCQSYDTGLSGHVFGSGTELTVL
For the molecule B2, the EC50 turned out to be 4.2 nM.

For orientation: EC50 means the concentration that produces a half-maximal response.
